{
  "source": "patent US20080166749A1",
  "about": "“Fluorescent Protein Sensors of Post-Translational Modifications” (INVITROGEN CORPORATION, priority 1998, published 2008)",
  "key": {"[1]": {"target": "T1, protein kinase A catalytic subunit (Mus musculus, UniProt P05132)", "assay": "Change in fluorescence after incubation with excess protein kinase A", "assay_type": "biochemical", "settings": "one hour at 30° C., 488 nm excitation, 511 nm emission; for % Change in fluorescence upon phosphorylation: more drastically altered N-terminal sites, excess PKA catalytic subunit; for % Change in fluorescence: excess protein kinase A catalytic subunit", "description": "(§1) Numbers prior to the sequence indicate amino acid position in wild type GFP (SEQ ID NO:2) where phosphorylation motif starts. The relative rates of phosphorylation compare the rate of phosphorylation of the given phosphorylation motif with the endogenous protein kinase A phosphorylation motif in Aequorea GFP (HKFSV, SEQ ID NO:1) measured by incorporation of ^32P after incubation of the purified substrate and protein kinase A catalytic subunit in the presence of ^32P-labeled ATP using 3 micrograms of GFP, 5 micrograms protein kinase A catalytic subunit, for 10 minutes at 30° C. in standard phosphorylation buffer (20 mM MOPS, pH 6.5, 100 mM KCl, 100 micromolar ATP, 3 mM MgC2, 1 mM DTT and 100 microCi ^32P-labeled ATP. Reactions were terminated by blotting onto phosphocellulose paper and washing with 10% phosphoric acid. The percent change in fluorescence represents the increase in fluorescence (475 nm excitation, 510 nm emission) observed in each purified protein resulting from incubation with excess protein kinase A catalytic subunit for one hour at 30° C. using the same phosphorylation conditions as described above except that no ^32P labeled ATP was present and that after the reaction time was complete, samples were analyzed in a fluoromiter rather than blotted onto phosphocellulose paper.\n(§2) Numbers prior to the sequence indicate amino acid position in the wild type GFP where the phosphorylation motif starts. The relative rates of phosphorylation compare the rate of phosphorylation of the given phosphorylation motif with the endogenous protein kinase A phosphorylation motif in Aequorea GFP (HKFSV) measured by incorporation of ^32P after incubation of the purified substrate and protein kinase A catalytic subunit in the presence of ^32P-labeled ATP using the standard protocols described above. The percentage change in fluorescence represents the change in fluorescence (488 nm excitation, 511 nm emission) observed in each purified protein as a result of incubation with excess protein kinase A catalytic subunit for one hour at 30° C. using phosphorylation conditions described above. […] To improve the effect of phosphorylation on fluorescence, amino acids around the phosphorylation site were mutated to create an optimal phosphorylation sequence even if it disordered the existing local tertiary structure. Such disruption was predicted and found to decrease the basal fluorescence of these constructs in their non-phosphorylated state (Table VI).\nNumbers prior to the sequence indicate amino acid position in wild type GFP where the phosphorylation site starts. Negative numbers indicate extensions onto the wild-type N-terminus. The percent change in fluorescence represents the change in fluorescence (488 nm excitation, 511 nm emission) observed in each purified protein resulting from incubation with excess protein kinase A catalytic subunit for one hour at 30° C. using standard phosphorylation conditions described earlier."}, "[2]": {"target": "T1, protein kinase A catalytic subunit", "assay": "Relative rate of phosphorylation by protein kinase A, ^32P incorporation", "assay_type": "biochemical", "settings": "relative to endogenous PKA motif HKFSV; sites inserted at the N-terminus of S65T GFP", "description": "as §1, §2"}, "[3]": {"assay": "Fluorescent properties of mutants of Aequorea green fluorescent protein (Table I)", "assay_type": "physicochemical"}, "[4]": {"system": "activated recombinant MAP kinase", "assay": "Phosphorylation of GFP Erk sensors by MAP kinase, ^32P incorporation", "assay_type": "biochemical", "settings": "10 μM substrate, 100 ng MAP kinase, 30 minutes at 30° C.; mean ± standard deviation of triplicates", "source_text": "Experiments were terminated and samples processed as described previously in subsection D.4. Results presented in Table X represent means of triplicate determinations ±standard deviations of ^32P-incorporation in washed pellets as described earlier."}},
  "note": "Where no end group is shown, it is not given here.",
  "data": [
    {"molecule": "1IMRRRRSI1: S65T GFP with N-terminal phosphorylation site MRRRRSII (not fully specified (C-terminus); printed as 1IMRRRRSI1)", "values": [
      {"measurement": "% Change in fluorescence upon phosphorylation", "setting": "[1]", "value": 70, "unit": "%"},
      {"measurement": "% Change in fluorescence upon phosphorylation", "setting": "[1]; listed as 1MRRRRSII", "value": "about 70%"}
    ]},
    {"molecule": "1MRDSCLF: S65T GFP with N-terminal phosphorylation site MRDSCLF (not fully specified (C-terminus); printed as 1MRDSCLF)", "values": [
      {"measurement": "% Change in fluorescence", "setting": "[1]", "value": 17, "unit": "%"},
      {"measurement": "Relative rates of phosphorylation", "setting": "[2]", "value": 3.7}
    ]},
    {"molecule": "1MRKGSCLF: S65T GFP with N-terminal phosphorylation site MRKGSCLF (not fully specified (C-terminus); printed as 1MRKGSCLF)", "values": [
      {"measurement": "% Change in fluorescence", "setting": "[1]", "value": 5.7, "unit": "%"},
      {"measurement": "Relative rates of phosphorylation", "setting": "[2]", "value": 5.1}
    ]},
    {"molecule": "1MRKGSLLF: S65T GFP with N-terminal phosphorylation site MRKGSLLF (not fully specified (C-terminus); printed as 1MRKGSLLF)", "values": [
      {"measurement": "% Change in fluorescence", "setting": "[1]", "value": 8.0, "unit": "%"},
      {"measurement": "Relative rates of phosphorylation", "setting": "[2]", "value": 1.6}
    ]},
    {"molecule": "1MRRESLLF: S65T GFP with N-terminal phosphorylation site MRRESLLF (not fully specified (C-terminus); printed as 1MRRESLLF)", "values": [
      {"measurement": "% Change in fluorescence", "setting": "[1]", "value": 6.0, "unit": "%"},
      {"measurement": "Relative rates of phosphorylation", "setting": "[2]", "value": 3.0}
    ]},
    {"molecule": "1MSKRRDSL: GFP with N-terminal phosphorylation site MSKRRDSL; 7% of wild type fluorescence (not fully specified (C-terminus); printed as 1MSKRRDSL)", "values": [
      {"measurement": "% Change in fluorescence", "setting": "[1]", "value": 5.1, "unit": "%"},
      {"measurement": "Relative rates of phosphorylation", "setting": "[2]", "value": 5.5}
    ]},
    {"molecule": "1MSRRDSCF: S65T GFP with N-terminal phosphorylation site MSRRDSCF (not fully specified (C-terminus); printed as 1MSRRDSCF)", "values": [
      {"measurement": "% Change in fluorescence", "setting": "[1]", "value": 25, "unit": "%"},
      {"measurement": "Relative rates of phosphorylation", "setting": "[2]", "value": 2.1}
    ]},
    {"molecule": "O=C(Nc1ccccc1-c1ccc(Cl)cc1)c1cccnc1Cl", "note": "[Emerald]", "values": [
      {"measurement": "Emission Max", "setting": "[3]", "value": 508, "unit": "nm"},
      {"measurement": "Excitation Max", "setting": "[3]", "value": 487, "unit": "nm"}
    ]},
    {"molecule": "Erk-1: GFP mutant K8 with Erk kinase motif Met Val Glu Pro Leu Thr Pro Ser Phe (MVEPLTPSF; not fully specified; printed as Met Val Glu Pro Leu Thr Pro Ser Phe)", "values": [
      {"measurement": "^32P-Incorporation (CPM)", "setting": "[4]", "value": "1579 ± 282", "unit": "CPM"}
    ]},
    {"molecule": "Erk-4: GFP mutant K8 with Erk kinase motif Met Thr Gly Pro Leu Ser Pro Gly Phe (MTGPLSPGF; not fully specified; printed as Met Thr Gly Pro Leu Ser Pro Gly Phe)", "values": [
      {"measurement": "^32P-Incorporation (CPM)", "setting": "[4]", "value": "1982 ± 260", "unit": "CPM"}
    ]},
    {"molecule": "Erk-5: GFP mutant K8 with Erk kinase motif Met Thr Gly Pro Leu Ser Pro Gly Tyr (MTGPLSPGY; not fully specified; printed as Met Thr Gly Pro Leu Ser Pro Gly Tyr)", "values": [
      {"measurement": "^32P-Incorporation (CPM)", "setting": "[4]", "value": "6455 ± 558", "unit": "CPM"}
    ]},
    {"molecule": "Wild type: wild-type Aequorea green fluorescent protein, SEQ ID NO:2", "values": [
      {"measurement": "Emission Max", "setting": "[3]", "value": 508, "unit": "nm"},
      {"measurement": "Excitation Max", "setting": "[3]", "value": 395, "unit": "nm"},
      {"measurement": "Extinction Coefficient", "setting": "[3]", "value": "21,000 M − 1 cm − 1"},
      {"measurement": "Quantum Yield", "setting": "[3]", "value": 0.77}
    ]},
    {"molecule": "−1MRRRRSIII: S65T GFP with N-terminal phosphorylation site MRRRRSIII, N-terminus extended by one (not fully specified (C-terminus); printed as −1MRRRRSIII)", "values": [
      {"measurement": "% Change in fluorescence upon phosphorylation", "setting": "[1]", "value": 43, "unit": "%"},
      {"measurement": "% Change in fluorescence upon phosphorylation", "setting": "[1]; listed as MRRRRSIII", "value": "about 70%"}
    ]},
    {"molecule": "−2MRRRRSIIIF: S65T GFP with N-terminal phosphorylation site MRRRRSIIIF, N-terminus extended by two (not fully specified (C-terminus); printed as −2MRRRRSIIIF)", "values": [
      {"measurement": "% Change in fluorescence upon phosphorylation", "setting": "[1]", "value": 15, "unit": "%"}
    ]}
  ]
}
